Measurements: the DeepSol protein solubility set

Assay: soluble on expression in E. coli; label from the status in PepcDB or PDB records

Row | Sequence | soluble on expression in E. coli
1 | MDVLEISKKILHEGPVCDHCMGRQFAKLSTGLSNRERGQAVKLALALEGDRIYKSENDDSLLKELAPCSALARKTLRIEGENEQCWVCLDQFKKLDFWAEEAAKALEGLEYSTFLVGTKVSGLLSENEEILWAEAGTAYAEQLKTELNREVGKRIAERVNKEVDFENPDIVITLDLATNKFELQVRSVYIYGRYLKKVRGIPQTRWPCRKCRGKGCEKCGFTGKQYPESVDELIKGPVVEAFEAVDTAFHGSGREDIDALMLGSGRPFVVEAKSPVKRSADLEALAAKINENAAGKVEVRDLRFVEKGMIETLKSSKADKTYKLKVTFKEPVSEEKLKSCLESLNGTEIAQQTPKRVVHRRADLIRKRYVHSITLNELTDDGYAYITVNCEGGLYVKELISGDEGRTNPSLTGLLGIPALVEDLDVVNVEILEHHHHHH | soluble
2 | MDVSEGGVTVSVPTASGGGEGAADDVFFNATQELNRDLTVATLAAFREREPRAASYLDAMTASGIRGVRAANAGWDVTMADVDADAVELATSNLARNGLDGEVVARDANSLLHDHDRVLDVVDIDPFGSPMPFADAAFANARNLVCVTATDTAPLCGAHFESGVRKYSATPRNTNYHAEMGLRILLGALARTAARYDVGVTPILSHVSDHYVRTYLELDHRATDANAAVEQVGHVYHCQQCLSRDHEYGLVAAPRAECPRCGGHQVLTAGPLWLGPAHEEAFAASVREQLTREMGEASQAFHLLQTIEGELHEPTHYDQHRLYSQWGEPAVGMAEFLDQLRDAGLRASRTHFGGTTFKTDGGLAEVEAAVLLEHHHHHH | soluble
3 | MDVYHDGACPEVKPVDNFDWSQYHGKWWEVAKYPSPNGKYGKCGWAEYTPEGKSVKVSRYDVIHGKEYFMEGTAYPVGDSKIGKIYHSRTVGGYTKKTVFNVLSTDNKNYIIGYSCRYDEDKKGHWDHVWVLSRSMVLTGEAKTAVENYLIGSPVVDSQKLVYSDFSEAACKVNNSNWSHPQFEK | soluble
4 | MDWIQCNHCGIKPNQTKLYLTACGHVFCQNCTKAAFNSQCYLCKKPLKVDEINKNLRPDLMELFKDPRQLASDLVNELKQVVAFQAKQREIYVKCKNAEAKKDTERFAEARSKHVEKTQEIEKRKKAFLEDNVKLKNAKEEKNQLMARLKELREQPSQNLSVNKRRSNTRTEPPFSKISRTGPPSVMRKASHEFSLNLRDQSTSKILTSTPLSNIDYSRRDHRNRLFGAGLEHPSPILRQ | soluble
5 | MDYLNYEEIQSLKNSLLHNIKHTYISRYMILTALYTGMRPGEIAVLTWSDIDFKNQTININKSYNHDKGRVDNYDSSEIDKSTKNTNSVRIIKVDKKFLDILSQLKQNDHEKIFIGKDGTIPTSNAVNKVWRKQLEKLNIDKPSFHFHSVRHTHVALLPFKGVPLYAISKRLGHANMSTTAKKYAYMLDELKQQVRLEHHHHHH | soluble
6 | MDYTNNQLHVIYGDASLGLEGPNFHYLFSYERGGLESLVVNQKEWLYRTPTPLFWRATTDNDHGNGFDVKAAQWYAADRFTTCQKIDLTVDGQLVQPLPIAPLNNRYTNHEMANQVALTYHFVTPTVPSTSVSITYTVASDGNIKIMTHFAGREGLPELPAFGLRFIMPTTATGFDYQGLSGETYPDRLAGATQGQFHVDGLPVTPYLVPQECGMHMQTSQLTVTRSTTQNNADQSKQPFSLTFSQADQPFAFSCLPYTAAELEQATHLEELPLPRRTVLSIYGAVRGVGGIDSWGADVEAKYHIPANQDLDFSFNIHFLEHHHHHH | not soluble
7 | MDYYYYPFVSDPYAVYTPNVWQSQGADELYLYSMPAIERQPQPVLSNAPAQTSIVLFKELTGYPNYGNPSGNADILYTGNRGTWTFDIQPILLIPGNLTAQLVIRGVLDDHTNVPVANYSARITINGTVVHTGRLPLVHGSPAGQRFNNWRLLTFNVPNLRRNNTVVIQNTSNTGPNDWIAFDWMELRLQPR | not soluble
8 | MEAEMSDERCALVLEGGAMRGMYTAGVLDCFMDHDISFDAVIGVSAGALFGVNLLSKQRGRVIRYNKRFNSDKNYMGIRPLLREKNIVSTKYAYDTVPRELDPFDDEEYKKSDIPFYAVVTNIRTGKPEYVQIKSVFDQMDVLRASGSMPVVSKPVKLGNEWYLDGAVTDSIPYEHMLDMGYDRVVVVLTKPADYIKKPMPRLFTSVYKKRFPRFYEAFSNRHIMYNYQLEHLKELEKQGIAEVLRPSEHIKISKVEKDPNKLESLYQLGLRDAKRLLADKQGMEKQ | not soluble
9 | MEAHNVEISTRLTPEMKNQGTIELLYKALQQGDTSTVTKVVASDVEWWFHGPHDCQHMMRLLTGEPPRQVSFRFEPSSVQVVVPGHDCVIAEGWEGSRVYWVHVWKLKDGVVTELREYFNTWLTVTDYSLGAVGWDMGRCTVWESVPRDLARGSLPSLLLAI | soluble
10 | MEALKRKIEEEGVVLSDQVLKVDSFLNHQIDPLLMQRIGDEFASRFAKDGITKIVTIESSGIAPAVMTGLKLGVPVVFARKHKSLTLTDNLLTASVYSFTKQTESQIAVSGTHLSDQDHVLIIDDFLANGQAAHGLVSIVKQAGASIAGIGIVIEKSFQPGRDELVKLGYRVESLARIQSLEEGKVSFVQEVHS | soluble
11 | MEANSGGGGGAEGGRAVTGGGGGGGGSDVELVSKTLQVEHKLFYFDLKENPRGRYLKISEKTSATRSTIIVPSSGISWFLDLFNYYVNSEEHELFSKELQLDSKVFYFDIGENRRGRFLKVSEASVSRNRSTIIVPAGSSPDEGWAAFRNILAEIHEASGLFVMPNQKPSDGQEHLVDDVGAGFIPGHGSQQPSSSEHNVDRTIDSPGSDRSSIILPLSGLKQFHEVIGHFVEITKDKIEVLILLEDGNFQSSNHLNLATSSRLPDRGVQ | soluble
12 | MEAVGADESYDGQQLYMMLVGHSRMADADRTAILGGTFTPIHNGHRALLHKAFQTASHDGSGDGHVIVGLTSPELATETRSDPTHVKQLGAYDDRRSALASELDQLGEPYTATYEIVRLDDTQGPAATRADVDALVASPEAKAQRRAYELNQQRRESGLHPLEIHTPPFVVAEDGTRISSTRIRNGEIDVHGRLLDASE | not soluble
13 | MEAWIAEAKALLAALVAVPSVSAEGRALREGAEKVAEVLEGLGLRAELHEGYGPPVVFAEGGEGERTLLFYNHYDVQPPDPLELWDTDPFVLAEREGAWYARGAHDYKGELVVRVVALRRFQEKHGFLPRVKFVVEGEEEVGSPHLEAYVADKRDLLKAEAILWEAGGVDAKGRPYLYAGLKGIVALELRVRTAAFDLHSSYGAVVENPIYRLSRALASLRDEEGRVLIPGFYAKVRPLTPLEMEVLAQIPDESEALREAFGVRDFLGGARNLDFNQRLYAEPCVNFNGFHAGYGGPGSKTVLPAEARAKLDFRLVPDQDPEEVPELLRRHLEAQGFHDVEVVVLEKGERPARSDLAHPFVALARRALEEAFGERPVLYPNMAGSGPMHPFLHHLKAPAVGLGVGYPGSRVHSPNEHIRVRDFERGVQALLRLLELFFLGR | soluble
14 | MEAYEKHYQELRQAKNIDGKPFQLIPVPVTRKVVKEADCKGSYLNFYIGNEVVLVPVYGDEHDKLGLQIIEGQFPGRRIVGIYVNELYAYGGMIHCVTQQHIELEHHHHHH | not soluble
15 | MEDEHSRQAYVDQLGLLEEGADEVFEEILAAATSYFQTPIALISILDHQRQWFRASIGLDIRQTPRRDSFCAYAILGKGVFEVADATLDPRFRDNPYVQGEPRIRFYAGAPLATAEGLNLGSLCVIDREPRGPLAERDVAMLEHFARLVMARIHTLRSTNYIDEPTGLYNRLRLQEDVSLRLQRDGALTVIAADLLPLALLNTIIRTLGYPFSNDLMLEARDRIRAELPDFTLYKISPTRFGLLLPRQQQEETESVCLRLLRAFESPVVCRGIPIKANVGLGVLPLADDTLDGDQDWLRLVVSAADDARDRGVGWARYNPPLDQAQQRAFTLLTSLSQAIGTEEGFHLVYQPKIDLPTGRCTGVEALLRWRHPQLGFVSPAEFVPLAEKTALMRPLSDWVLRHAMAQLAQWNARNIPLRLAINVSASDMEDSSFLEEAVRLAKTYDIDLSALELEFTESVLIRDASAVGSVLLRARELGMGIAVDDFGTGYSNWTYLRDLPITAIKLDQSFTRDLAGSPKAQSVTQAVIGLASQLGYRVVAEGIETHDTFHLLQAWGCHEGQGYLIAQPMLPEQLEDWLRRLEHHHHHH | not soluble
16 | MEDLDAYRAACANRIRRLERYKKARSFCSLETDEPTSSSPSLSSNSDVSQENGSSTFDMIREKMFSLMENDMTLLKQLLQLGDQISEIKKERLRRTMSQNSLEYDEEDEKEDKFDSGFSASMSAVTNLYVDDERPQFFSRQNSVLRIPIPPRSSNRFGPRRVIRRPSDILPRQQTNNIRTLHVNSDDSDSSSSGSKTHSPSSSVYNASTLILPSKTTKNRSSNSSIDSGIRDEQLTPSPTFESVVI | not soluble
